Data on 69 substances can be found in patent US20240309062A1.

The target in the first assay is T1, mouse IFNAR2 (mouse) (UniProt O35664).
T1 sequence: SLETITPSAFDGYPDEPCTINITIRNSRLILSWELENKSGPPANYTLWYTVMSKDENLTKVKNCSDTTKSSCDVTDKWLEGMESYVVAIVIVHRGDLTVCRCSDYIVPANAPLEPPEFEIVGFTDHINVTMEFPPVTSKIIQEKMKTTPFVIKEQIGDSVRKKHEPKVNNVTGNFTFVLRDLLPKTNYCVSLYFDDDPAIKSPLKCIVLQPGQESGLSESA
The assay can be described thus: AlphaSeq.
Take “IFNA2b_L49P_A168K (from UniProt P01563 24-188) (ligand)”: the apparent Kd (pooled screen) is 461 nM.

For “IFNA2b_L49P_A168Q (from UniProt P01563 24-188) (ligand)”, the apparent Kd (pooled screen) was determined as 321 nM.

With “IFNA2b_L49P_E164D (from UniProt P01563 24-188) (ligand)”, the apparent Kd (pooled screen) came to 75 nM.

As to “IFNA2b_L49P_K135I (from UniProt P01563 24-188) (ligand)”, the apparent Kd (pooled screen) is 697 nM.

As to “IFNA2b_L49P_K156T (from UniProt P01563 24-188) (ligand)”, the apparent Kd (pooled screen) was found to be 65 nM.

In the case of “IFNA2b_L49P_K187L (from UniProt P01563 24-188) (ligand)”, the apparent Kd (pooled screen) turned out to be 85 nM.

Regarding “IFNA2b_L49P_K187R (from UniProt P01563 24-188) (ligand)”, the apparent Kd (pooled screen) turned out to be 415 nM.

On to “IFNA2b_L49P_K187Y (from UniProt P01563 24-188) (ligand)”, for which the apparent Kd (pooled screen) was 90 nM.

In the case of “IFNA2b_L49P_L176P (from UniProt P01563 24-188) (ligand)”, the apparent Kd (pooled screen) is 69 nM.

On to “IFNA2b_L49P_N179G (from UniProt P01563 24-188) (ligand)”, for which the apparent Kd (pooled screen) stood at 84 nM.

Regarding “IFNA2b_L49P_R167A (from UniProt P01563 24-188) (ligand)”, the apparent Kd (pooled screen) was determined as 2200 nM.

For “IFNA2b_L49P_R167H (from UniProt P01563 24-188) (ligand)”, the apparent Kd (pooled screen) worked out at 480 nM.

Consider “IFNA2b_L49P_R167K (from UniProt P01563 24-188) (ligand)”, for which the apparent Kd (pooled screen) was determined as 77 nM.

Turning to “IFNA2b_L49P_R167M (from UniProt P01563 24-188) (ligand)”, the apparent Kd (pooled screen) turned out to be 2380 nM.

In the case of “IFNA2b_L49P_R167S (from UniProt P01563 24-188) (ligand)”, the apparent Kd (pooled screen) was 65800 nM.

On to “IFNA2b_L49P_R167W (from UniProt P01563 24-188) (ligand)”, for which the apparent Kd (pooled screen) is 6440 nM.

With “IFNA2b_L49P_R172A (from UniProt P01563 24-188) (ligand)”, the apparent Kd (pooled screen) was determined as 6870 nM.

On to “IFNA2b_L49P_R172E (from UniProt P01563 24-188) (ligand)”, for which the apparent Kd (pooled screen) stood at 47300 nM.

For “IFNA2b_L49P_R172G (from UniProt P01563 24-188) (ligand)”, the apparent Kd (pooled screen) stood at 2260 nM.

Turning to “IFNA2b_L49P_R172I (from UniProt P01563 24-188) (ligand)”, the apparent Kd (pooled screen) was 310 nM.

With “IFNA2b_L49P_R172M (from UniProt P01563 24-188) (ligand)”, the apparent Kd (pooled screen) worked out at 227 nM.

In the case of “IFNA2b_L49P_R172N (from UniProt P01563 24-188) (ligand)”, the apparent Kd (pooled screen) is 18100 nM.

As for “IFNA2b_L49P_R172Q (from UniProt P01563 24-188) (ligand)”, the apparent Kd (pooled screen) was 8550 nM.

As for “IFNA2b_L49P_R172S (from UniProt P01563 24-188) (ligand)”, the apparent Kd (pooled screen) was determined as 6190 nM.

Turning to “IFNA2b_L49P_R172V (from UniProt P01563 24-188) (ligand)”, the apparent Kd (pooled screen) was determined as 566 nM.

For the substance “IFNA2b_L49P_R172W (from UniProt P01563 24-188) (ligand)”, the apparent Kd (pooled screen) is 9950 nM.

Regarding “IFNA2b_L49P_S159H (from UniProt P01563 24-188) (ligand)”, the apparent Kd (pooled screen) was 65 nM.

For the substance “IFNA2b_L49P_S183Y (from UniProt P01563 24-188) (ligand)”, the apparent Kd (pooled screen) amounted to 75 nM.

As to “IFNA2b_L49P_V165D (from UniProt P01563 24-188) (ligand)”, the apparent Kd (pooled screen) worked out at 26100 nM.

Take “IFNA2b_L49P_V165E (from UniProt P01563 24-188) (ligand)”: the apparent Kd (pooled screen) was determined as 16400 nM.

For “IFNA2b_L49P_V165F (from UniProt P01563 24-188) (ligand)”, the apparent Kd (pooled screen) came out at 22900 nM.

In the case of “IFNA2b_L49P_V165G (from UniProt P01563 24-188) (ligand)”, the apparent Kd (pooled screen) was 34400 nM.

As for “IFNA2b_L49P_V165Q (from UniProt P01563 24-188) (ligand)”, the apparent Kd (pooled screen) is 18600 nM.

With “IFNA2b_L49P_V165R (from UniProt P01563 24-188) (ligand)”, the apparent Kd (pooled screen) was 8960 nM.

Turning to “IFNA2b_L49P_V165T (from UniProt P01563 24-188) (ligand)”, the apparent Kd (pooled screen) came out at 5950 nM.

As for “IFNA2b_M44N_A168H (from UniProt P01563 24-188) (ligand)”, the apparent Kd (pooled screen) amounted to 802 nM.

Regarding “IFNA2b_M44N_A168K (from UniProt P01563 24-188) (ligand)”, the apparent Kd (pooled screen) was 23300 nM.

Consider “IFNA2b_M44N_A168N (from UniProt P01563 24-188) (ligand)”, for which the apparent Kd (pooled screen) was 1500 nM.

As to “IFNA2b_M44N_A168Q (from UniProt P01563 24-188) (ligand)”, the apparent Kd (pooled screen) worked out at 20000 nM.

Consider “IFNA2b_M44N_A168S (from UniProt P01563 24-188) (ligand)”, for which the apparent Kd (pooled screen) stood at 545 nM.

As to “IFNA2b_M44N_E155R (from UniProt P01563 24-188) (ligand)”, the apparent Kd (pooled screen) worked out at 7660 nM.

“IFNA2b_M44N_G125Y (from UniProt P01563 24-188) (ligand)”: the apparent Kd (pooled screen) came to 5820 nM.

As to “IFNA2b_M44N_K135G (from UniProt P01563 24-188) (ligand)”, the apparent Kd (pooled screen) stood at 416 nM.

Consider “IFNA2b_M44N_K156E (from UniProt P01563 24-188) (ligand)”, for which the apparent Kd (pooled screen) came to 24400 nM.

As to “IFNA2b_M44N_K187E (from UniProt P01563 24-188) (ligand)”, the apparent Kd (pooled screen) came out at 415 nM.

Take “IFNA2b_M44N_L176R (from UniProt P01563 24-188) (ligand)”: the apparent Kd (pooled screen) came to 541 nM.

Take “IFNA2b_M44N_L184E (from UniProt P01563 24-188) (ligand)”: the apparent Kd (pooled screen) came to 811 nM.

As to “IFNA2b_M44N_R167A (from UniProt P01563 24-188) (ligand)”, the apparent Kd (pooled screen) is 5780 nM.

Take “IFNA2b_M44N_R167I (from UniProt P01563 24-188) (ligand)”: the apparent Kd (pooled screen) worked out at 4900 nM.

Take “IFNA2b_M44N_R167L (from UniProt P01563 24-188) (ligand)”: the apparent Kd (pooled screen) is 2260 nM.

Take “IFNA2b_M44N_R167T (from UniProt P01563 24-188) (ligand)”: the apparent Kd (pooled screen) amounted to 7010 nM.

As for “IFNA2b_M44N_R172W (from UniProt P01563 24-188) (ligand)”, the apparent Kd (pooled screen) turned out to be 8770 nM.

For the substance “IFNA2b_M44N_S138W (from UniProt P01563 24-188) (ligand)”, the apparent Kd (pooled screen) amounted to 942 nM.

As to “IFNA2b_M44N_S159D (from UniProt P01563 24-188) (ligand)”, the apparent Kd (pooled screen) was found to be 34500 nM.

“IFNA2b_M44N_S175E (from UniProt P01563 24-188) (ligand)”: the apparent Kd (pooled screen) is 484 nM.

“IFNA2b_M44N_S177D (from UniProt P01563 24-188) (ligand)”: the apparent Kd (pooled screen) was found to be 12300 nM.

Consider “IFNA2b_M44N_T150G (from UniProt P01563 24-188) (ligand)”, for which the apparent Kd (pooled screen) was found to be 528 nM.

The target in a further assay is T1, mouse IFNAR2 (mouse). The assay can be described thus: AlphaSeq, replicates.
In the case of “IFNA2_L49P (from UniProt P01563 24-188) (ligand)”, the apparent Kd (pooled screen) was 20 nM.

Another assay addresses T1, mouse IFNAR2 (mouse). The assay can be described thus: AlphaSeq (yeast mating, Aga2 display).
For the substance “IFNA2b_L49P_A168D (from UniProt P01563 24-188) (ligand)”, the apparent Kd (pooled screen) was determined as 586 nM.

Consider “IFNA2b_L49P_K156Q (from UniProt P01563 24-188) (ligand)”, for which the apparent Kd (pooled screen) was found to be 73 nM.

Turning to “IFNA2b_L49P_L140N (from UniProt P01563 24-188) (ligand)”, the apparent Kd (pooled screen) is 480 nM.

For the substance “IFNA2b_L49P_R167I (from UniProt P01563 24-188) (ligand)”, the apparent Kd (pooled screen) amounted to 708 nM.

Turning to “IFNA2b_L49P_R167L (from UniProt P01563 24-188) (ligand)”, the apparent Kd (pooled screen) is 1950 nM.

Regarding “IFNA2b_L49P_R167T (from UniProt P01563 24-188) (ligand)”, the apparent Kd (pooled screen) came to 3000 nM.

Turning to “IFNA2b_L49P_R167V (from UniProt P01563 24-188) (ligand)”, the apparent Kd (pooled screen) amounted to 1740 nM.

On to “IFNA2b_M44N_A120T (from UniProt P01563 24-188) (ligand)”, for which the apparent Kd (pooled screen) came out at 591 nM.

For “IFNA2b_M44N_E130M (from UniProt P01563 24-188) (ligand)”, the apparent Kd (pooled screen) is 825 nM.

As to “IFNA2b_M44N_E188R (from UniProt P01563 24-187) (ligand)”, the apparent Kd (pooled screen) came to 520 nM.

Take “IFNA2b_M44N_V128G (from UniProt P01563 24-188) (ligand)”: the apparent Kd (pooled screen) turned out to be 472 nM.
